In patent US20200392230A1 (QLB BIOTHERAPEUTICS, published 2020):
One block for each binder: values may come before it.

Legend:
[1] = target: T1, CD20 (UniProt P11836 1-297, limits assumed); experiment: FACS, cell surface binding on Raji cells
T1 construct: whole, on cells; also called CD20 on Raji cells; CD20 on Daudi cells
T1 sequence (looked up): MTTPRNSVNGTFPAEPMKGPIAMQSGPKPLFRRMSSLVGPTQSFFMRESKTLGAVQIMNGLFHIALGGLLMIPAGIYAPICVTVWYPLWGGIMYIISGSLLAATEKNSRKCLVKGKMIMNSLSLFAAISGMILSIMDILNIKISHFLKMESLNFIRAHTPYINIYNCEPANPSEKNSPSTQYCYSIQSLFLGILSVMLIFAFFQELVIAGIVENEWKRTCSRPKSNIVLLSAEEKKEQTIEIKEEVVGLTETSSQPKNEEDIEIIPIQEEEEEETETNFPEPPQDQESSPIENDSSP
Protocol: (§1) After washing in phosphate buffered saline (PBS), fluorescence conjugated secondary antibodies were added to the cell mixture. The stained cells were analyzed in an LSR II FACS machine (BD Biosciences). Mean fluorescence intensity (MFI) was used to indicate the binding strength of the tested antibodies.

[2] = target: T2, CD3 (UniProt P07766 23-207); experiment: FACS, cell surface binding on Jurkat cells (CD3+), fluorescent secondary antibody, MFI
T2 construct: whole, on cells; In the functional assays CD3 stood on engineered effector cells or on T cells of human PBMCs; also called CD3 on Jurkat cells; TCR/CD3 complex
Protocol: as §1

T2 sequence (P07766 23-207): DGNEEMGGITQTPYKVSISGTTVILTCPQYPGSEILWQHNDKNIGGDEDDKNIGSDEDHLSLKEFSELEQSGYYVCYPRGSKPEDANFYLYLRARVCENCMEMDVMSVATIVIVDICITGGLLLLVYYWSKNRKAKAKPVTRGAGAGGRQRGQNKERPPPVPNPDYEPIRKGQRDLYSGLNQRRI

binding result [1]: binds
B1: QLB1005-0001 (bispecific antibody)
chain 1: QAVVTQEPSLTVSPGGTVTLTCRSSTGAVTTSNYANWVQQKPGQAPRGLIGGTNKRAPGVPARFSGSLLGDKAALTLSGAQPEDEAEYYCALWYSNLWVFGTGTKVTVLGGGGSGGGGSGGGGSEVQLVESGGGLVQPGGSLKLSCAASGFTFNTYAMNWVRQASGKGLEWVARIRSKYNNYATYYADSVKDRFTISRDDSKNTLYLQMNSLKTEDTAVYYCVRHGNFGNSYVSWFAYWGQGTLVTVSSGGGGSASTKGPSVFPLAPSSKSTSGGTAALGCLVKDYFPEPVTVSWNSGALTSGVHTFPAVLQSSGLYELVSVVTVPSSSLGTQTYICNVNHKPSNTKVDKKVEPKSC
chain 2: QIVLTQSPATLSLSPGERATLSCRASSSVSYIHWFQQKPGQAPRPWIYATSNLASGVPARFSGSGSGTDYTLTISSLEPEDFAVYYCQQWTSNPPTFGQGTKVEIKGGGGSGGGGSGGGGSQVQLVQSGAEVKKPGASVKVSCKASGYTFTSYNMHWVRQAPGQGLEWIGAIYPGNGDTSYNQKFKGKATLTADKSTSTAYMELSSLRSEDTAVYYCARSTYYGGDWYFNVWGQGTLVTVSSGGGGSRTVAAPSVFIFPPSDEQLKSGTASVVCLLNNFYPREAKVQWKVDNALQSGNSQESVTEQDSKDSTYSLLSSLTLSKADYEKHKVYACEVTHQGLSSPVTKSFNRGEC
notes: NCI/NIH CH1-CK stabilized Fab format; the CH1 and CK domains form a heterodimer via a disulphide bond; also called anti-CD3×CD20 BsAb; Fab format (VL-VH-CH1/VL-VH-CK)

binding result [1]: binds
B2: QLB1005-0003 (bispecific antibody)
chain 1: EVQLVESGGGLVQPGGSLKLSCAASGFTFNTYAMNWVRQASGKGLEWVARIRSKYNNYATYYADSVKDRFTISRDDSKNTLYLQMNSLKTEDTAVYYCVRHGNFGNSYVSWFAYWGQGTLVTVSSGGGGSGGGGSGGGGSQAVVTQEPSLTVSPGGTVTLTCRSSTGAVTTSNYANWVQQKPGQAPRGLIGGTNKRAPGVPARFSGSLLGDKAALTLSGAQPEDEAEYYCALWYSNLWVFGTGTKVTVLGGGGSASTKGPSVFPLAPSSKSTSGGTAALGCLVKDYFPEPVTVSWNSGALTSGVHTFPAVLQSSGLYELVSVVTVPSSSLGTQTYICNVNHKPSNTKVDKKVEPKSC
chain 2: QVQLVQSGAEVKKPGASVKVSCKASGYTFTSYNMHWVRQAPGQGLEWIGAIYPGNGDTSYNQKFKGKATLTADKSTSTAYMELSSLRSEDTAVYYCARSTYYGGDWYFNVWGQGTLVTVSSGGGGSGGGGSGGGGSQIVLTQSPATLSLSPGERATLSCRASSSVSYIHWFQQKPGQAPRPWIYATSNLASGVPARFSGSGSGTDYTLTISSLEPEDFAVYYCQQWTSNPPTFGQGTKVEIKGGGGSRTVAAPSVFIFPPSDEQLKSGTASVVCLLNNFYPREAKVQWKVDNALQSGNSQESVTEQDSKDSTYSLLSSLTLSKADYEKHKVYACEVTHQGLSSPVTKSFNRGEC
notes: NCI/NIH CH1-CK stabilized Fab format; the CH1 and CK domains form a heterodimer via a disulphide bond; also called anti-CD3×CD20 BsAb; Fab format (VH-VL-CH1/VH-VL-CK)

EC50 [2]: 98.2 nM
B3: QLB1005-0002 (bispecific antibody, human IgG1)
chain 1: EVQLVESGGGLVQPGGSLKLSCAASGFTFNTYAMNWVRQASGKGLEWVARIRSKYNNYATYYADSVKDRFTISRDDSKNTLYLQMNSLKTEDTAVYYCVRHGNFGNSYVSWFAYWGQGTLVTVSSGGGGSGGGGSGGGGSQAVVTQEPSLTVSPGGTVTLTCRSSTGAVTTSNYANWVQQKPGQAPRGLIGGTNKRAPGVPARFSGSLLGDKAALTLSGAQPEDEAEYYCALWYSNLWVFGTGTKVTVLGGGGSGGGGSGGGGSPKSCDKTHTCPPCPAPEAAGGPSVFLFPPKPKDTLMISRTPEVTCVVVDVSHEDPEVKFNWYVDGVEVHNAKTKPREEQYNSTYRVVSVLTVLHQDWLNGKEYKCKVSNKALGAPIEKTISKAKGQPREPQVCTLPPSRDELTKNQVSLSCAVKGFYPSDIAVEWESNGQPENNYKTTPPVLDSDGSFFLVSKLTVDKSRWQQGNVFSCSVMHEALHNHYTQKSLSLSPGK
chain 2: not shown
notes: scFv-Fc format with Knob-in-Hole and L234A, L235A (LALA) mutations in a human IgG1 Fc; The text also prints the name as QLB1005-02000; also called QLB1005-02000; QLB-1005-02000
